Measurements as given in article PMC7877763, “Aberrant binding of mutant HSP47 affects posttranslational modification of type I collagen and leads to osteogenesis imperfecta” (PLoS Genetics, 2021).
Residue numbers refer to the chain shown, from its start. Names and notes keep the numbering of the source.

B1: recombinant wild-type canine HSP47 (natural protein, UniProt C7C419 36-418, looked up)
chain: LSPKAATLAERSAGLAFSLYQAMAKDQAVENILLSPVVVASSLGLVSLGGKATTASQAKAVLSAEQLRDEEVHAGLGELLRSLSNSTARNVTWKLGSRLYGPSSVSFAEDFVRSSKQHYNCEHSKINFRDKRSALQSINEWAAQTTDGKLPEVTKDVERTDGALLVNAMFFKPHWDEKFHHKMVDNRGFMVTRSYTVGVTMMHRTGLYNYYDDEKEKLQIVEMPLAHKLSSLIILMPHHVEPLERLEKLLTKEQLKIWMGKMQKKAVAISLPKGVVEVTHDLQKHLAGLGLTEAIDKNKADLSRMSGKKDLYLASVFHATAFEWDTEGNPFDQDIYGREELRSPKLFYADHPFIFLVRDTQSGSLLFIGRLVRPKGDKMRDEL
notes: HSP47 (serpin H1), canine, residues 36-418 printed as 36LSP; RDEL418, in a pJExpress411 vector; The methods describe a strep-tagged construct; the ELISA methods speak of His-tagged HSP47 proteins detected by an anti-His antibody; also called wild-type HSP47; WT HSP47; source: E. coli BL21 (DE3), purified (Streptactin column, Superdex 200 SEC)
B2: recombinant canine HSP47-R222S (natural protein, UniProt C7C419 36-418, looked up)
chain: B1 chain with R187S
notes: HSP47 (serpin H1), canine, residues 36-418 (36LSP... RDEL418) with R222S introduced by Quikchange mutagenesis; The substitution is the one found in the human patient, placed in the canine protein; Strep tag by the purification methods, His tag by the ELISA methods; also called R222S HSP47; source: E. coli BL21 (DE3), purified as wild-type HSP47 (Streptactin column, Superdex 200 SEC)

Legend:
[1] = target: T1, type I collagen from rat tail (rat, UniProt P02454 152-1207; P02466 86-1125); experiment: ELISA; ELISA-like binding assay; type I collagen from rat tail coated at 10 ug/mL on MaxiSorp plates (coating of GPR-foldon not described); His-tagged HSP47 at 1.2 to 5,000 nM in solution; detected with HRP-coupled anti-His antibody; four-parameter logistic fit; conditions: both partners purified
T1 construct: collagen alpha-1(I) chain, rat; collagen alpha-2(I) chain, rat; Chain composition as the introduction tells of type I collagen in general; also called full length type I collagen; source: bought: BD Bioscience; copies: 2 + 1
T1 sequence (P02454 152-1207, chain 1 of 2): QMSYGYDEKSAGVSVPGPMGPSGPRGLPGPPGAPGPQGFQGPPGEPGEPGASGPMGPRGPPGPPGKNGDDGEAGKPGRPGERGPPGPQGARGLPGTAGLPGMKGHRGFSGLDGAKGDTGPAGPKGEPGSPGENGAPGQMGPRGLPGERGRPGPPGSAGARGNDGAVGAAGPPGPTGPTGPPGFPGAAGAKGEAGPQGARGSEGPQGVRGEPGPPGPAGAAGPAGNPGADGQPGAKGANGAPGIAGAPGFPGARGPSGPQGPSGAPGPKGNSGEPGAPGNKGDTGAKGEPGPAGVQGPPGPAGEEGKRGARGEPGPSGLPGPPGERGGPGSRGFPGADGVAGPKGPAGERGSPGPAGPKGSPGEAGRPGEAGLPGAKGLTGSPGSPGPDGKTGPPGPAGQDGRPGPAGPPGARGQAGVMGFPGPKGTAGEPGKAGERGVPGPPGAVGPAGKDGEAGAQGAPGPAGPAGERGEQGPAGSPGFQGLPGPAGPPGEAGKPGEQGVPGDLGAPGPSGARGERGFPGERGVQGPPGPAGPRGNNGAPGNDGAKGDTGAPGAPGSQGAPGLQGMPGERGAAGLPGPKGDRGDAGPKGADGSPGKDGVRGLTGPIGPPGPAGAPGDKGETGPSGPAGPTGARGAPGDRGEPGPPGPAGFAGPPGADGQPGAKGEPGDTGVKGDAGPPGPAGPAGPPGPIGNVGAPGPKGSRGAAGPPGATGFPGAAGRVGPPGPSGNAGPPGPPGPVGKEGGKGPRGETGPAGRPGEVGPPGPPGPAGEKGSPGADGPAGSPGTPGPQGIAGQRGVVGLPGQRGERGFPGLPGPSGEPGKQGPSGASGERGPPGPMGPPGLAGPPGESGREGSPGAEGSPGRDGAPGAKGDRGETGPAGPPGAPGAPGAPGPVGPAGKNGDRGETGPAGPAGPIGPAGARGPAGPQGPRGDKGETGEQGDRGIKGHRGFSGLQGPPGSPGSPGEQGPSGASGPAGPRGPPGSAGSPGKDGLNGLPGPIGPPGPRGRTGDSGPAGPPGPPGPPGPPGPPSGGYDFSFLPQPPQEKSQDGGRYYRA
T1 sequence (P02466 86-1125, chain 2 of 2): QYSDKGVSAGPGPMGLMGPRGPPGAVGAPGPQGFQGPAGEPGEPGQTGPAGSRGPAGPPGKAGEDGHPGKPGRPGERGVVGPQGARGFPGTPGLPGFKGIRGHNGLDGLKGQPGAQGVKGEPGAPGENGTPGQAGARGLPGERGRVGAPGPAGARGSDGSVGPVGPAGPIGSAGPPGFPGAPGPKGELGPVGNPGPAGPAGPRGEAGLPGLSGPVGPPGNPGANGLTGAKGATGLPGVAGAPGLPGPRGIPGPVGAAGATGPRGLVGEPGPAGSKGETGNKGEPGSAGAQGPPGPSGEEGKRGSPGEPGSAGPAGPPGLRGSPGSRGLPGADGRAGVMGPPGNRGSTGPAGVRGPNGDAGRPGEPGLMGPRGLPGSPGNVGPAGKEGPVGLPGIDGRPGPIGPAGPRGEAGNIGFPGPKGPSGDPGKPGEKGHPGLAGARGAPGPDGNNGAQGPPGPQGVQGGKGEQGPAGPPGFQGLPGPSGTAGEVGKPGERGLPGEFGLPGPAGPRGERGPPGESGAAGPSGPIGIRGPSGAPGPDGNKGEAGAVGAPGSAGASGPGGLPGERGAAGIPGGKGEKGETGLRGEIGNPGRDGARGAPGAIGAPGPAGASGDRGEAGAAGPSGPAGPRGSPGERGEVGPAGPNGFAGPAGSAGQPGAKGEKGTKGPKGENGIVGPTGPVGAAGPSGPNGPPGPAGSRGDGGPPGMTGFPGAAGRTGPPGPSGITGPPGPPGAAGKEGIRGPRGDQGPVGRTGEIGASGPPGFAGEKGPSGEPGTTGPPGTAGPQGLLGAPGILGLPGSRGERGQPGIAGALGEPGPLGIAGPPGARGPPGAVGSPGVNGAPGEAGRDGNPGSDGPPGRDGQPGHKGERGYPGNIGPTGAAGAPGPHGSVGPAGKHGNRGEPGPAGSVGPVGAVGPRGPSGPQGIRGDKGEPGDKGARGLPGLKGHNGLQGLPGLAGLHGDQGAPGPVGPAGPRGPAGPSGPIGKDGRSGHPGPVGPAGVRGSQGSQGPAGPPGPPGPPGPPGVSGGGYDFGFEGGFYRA

[2] = target: T2, full length pepsinized type I collagen from mouse tail tendon (mouse, UniProt P11087 152-1207; Q01149 86-1125); experiment: SPR; BIAcore X; type I collagen from mouse tail tendon immobilised on a CM5 chip by amide coupling (about 6,000 RU); HSP47 flowed over; 20°C; HBS-P (10 mM Hepes pH 7.4, 150 mM NaCl, 0.005% Surfactant P20); 10 ul/min; Langmuir binding model; conditions: both partners purified
T2 construct: collagen alpha-1(I) chain, mouse; collagen alpha-2(I) chain, mouse; Chain composition (two alpha1(I), one alpha2(I)) as the introduction tells of type I collagen in general; source: purified from mouse tail tendon (pepsinized); copies: 2 + 1
T2 sequence (P11087 152-1207, chain 1 of 2): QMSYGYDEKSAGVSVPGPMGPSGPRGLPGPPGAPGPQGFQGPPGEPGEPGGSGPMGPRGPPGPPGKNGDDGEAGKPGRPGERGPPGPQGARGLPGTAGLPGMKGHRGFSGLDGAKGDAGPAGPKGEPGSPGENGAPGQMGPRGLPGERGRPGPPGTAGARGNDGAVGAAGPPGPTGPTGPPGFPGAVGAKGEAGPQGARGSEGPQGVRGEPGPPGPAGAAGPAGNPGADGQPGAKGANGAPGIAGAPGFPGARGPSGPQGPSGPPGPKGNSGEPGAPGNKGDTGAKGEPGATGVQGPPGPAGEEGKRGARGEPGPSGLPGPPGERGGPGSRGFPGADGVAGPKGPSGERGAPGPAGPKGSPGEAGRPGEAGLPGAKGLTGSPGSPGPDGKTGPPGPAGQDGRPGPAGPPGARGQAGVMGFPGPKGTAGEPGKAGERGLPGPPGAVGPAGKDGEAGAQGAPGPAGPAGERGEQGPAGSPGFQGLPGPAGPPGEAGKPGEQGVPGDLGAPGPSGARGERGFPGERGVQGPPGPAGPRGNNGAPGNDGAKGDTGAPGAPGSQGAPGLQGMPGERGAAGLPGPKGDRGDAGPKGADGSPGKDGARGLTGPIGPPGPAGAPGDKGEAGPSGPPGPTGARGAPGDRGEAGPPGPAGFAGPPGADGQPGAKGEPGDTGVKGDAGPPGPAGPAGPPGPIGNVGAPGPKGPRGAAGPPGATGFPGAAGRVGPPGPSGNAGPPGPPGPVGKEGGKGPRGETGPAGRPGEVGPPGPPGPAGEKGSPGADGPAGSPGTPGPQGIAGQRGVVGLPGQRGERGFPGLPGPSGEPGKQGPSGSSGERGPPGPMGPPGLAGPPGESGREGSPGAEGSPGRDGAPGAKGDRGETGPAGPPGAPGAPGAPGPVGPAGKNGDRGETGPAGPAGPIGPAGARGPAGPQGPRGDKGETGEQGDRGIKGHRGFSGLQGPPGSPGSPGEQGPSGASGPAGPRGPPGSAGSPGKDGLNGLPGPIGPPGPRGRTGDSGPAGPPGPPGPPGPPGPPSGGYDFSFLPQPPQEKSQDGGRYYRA
T2 sequence (Q01149 86-1125, chain 2 of 2): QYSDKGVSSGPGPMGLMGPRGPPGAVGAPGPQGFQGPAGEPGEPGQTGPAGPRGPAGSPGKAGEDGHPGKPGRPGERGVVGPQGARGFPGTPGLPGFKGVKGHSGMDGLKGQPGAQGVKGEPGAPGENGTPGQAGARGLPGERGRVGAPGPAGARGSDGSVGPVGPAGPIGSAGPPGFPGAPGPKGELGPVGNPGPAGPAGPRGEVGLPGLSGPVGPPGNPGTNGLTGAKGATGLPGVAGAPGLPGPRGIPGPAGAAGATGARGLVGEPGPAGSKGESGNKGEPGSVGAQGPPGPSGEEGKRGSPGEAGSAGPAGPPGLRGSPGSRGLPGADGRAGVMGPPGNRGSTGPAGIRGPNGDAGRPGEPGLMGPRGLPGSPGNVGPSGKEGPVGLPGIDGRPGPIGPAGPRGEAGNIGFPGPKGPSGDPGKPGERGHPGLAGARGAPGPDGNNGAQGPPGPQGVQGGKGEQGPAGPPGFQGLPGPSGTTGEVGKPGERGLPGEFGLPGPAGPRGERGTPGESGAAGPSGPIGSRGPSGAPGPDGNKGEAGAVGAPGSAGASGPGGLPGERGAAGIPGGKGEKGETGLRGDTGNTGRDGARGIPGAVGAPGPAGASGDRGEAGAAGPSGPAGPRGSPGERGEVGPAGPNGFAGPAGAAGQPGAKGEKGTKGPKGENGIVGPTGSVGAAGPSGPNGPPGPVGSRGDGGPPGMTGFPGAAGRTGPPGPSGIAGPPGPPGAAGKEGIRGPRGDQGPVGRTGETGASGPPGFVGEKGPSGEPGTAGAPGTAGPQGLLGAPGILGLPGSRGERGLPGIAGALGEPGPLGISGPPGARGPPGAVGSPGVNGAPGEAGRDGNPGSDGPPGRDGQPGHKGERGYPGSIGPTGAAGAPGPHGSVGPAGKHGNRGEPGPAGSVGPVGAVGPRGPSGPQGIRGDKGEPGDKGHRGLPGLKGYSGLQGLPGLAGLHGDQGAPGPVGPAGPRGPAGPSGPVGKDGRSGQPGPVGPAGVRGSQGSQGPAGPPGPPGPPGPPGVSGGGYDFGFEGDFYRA

| Binder | Kd [1] | Kd [2] |
| --- | --- | --- |
| B1 | 139 nM | 60 nM |
| B2 | ~3600 nM | 640 nM |
